Laboratory results reported in patent publication US20240287138A1 (Merck Sharp & Dohme, published 2024).
Numbered stars: 1 amine (or outer) side, 2 acyl side, 3 side chain; on linkers, the order of the positions; unused ones are H or OH. Bridge positions count the residues as written; N and C are the ends. Square brackets hold non-standard residues; d marks the D form. 1S4RAcpc = (1S,4R)-4-Aminocyclopent-2-ene-1-carboxylic acid, O=C([C@@H]1C=C[C@H](N[*:1])C1)[*:2]; bhcLeu = (1R,3S)-3-aminocyclopentane-1-carboxylic acid, O=C([C@@H]1CC[C@H](N[*:1])C1)[*:2]; dPro4cPr = (R)-5-Azaspiro[2.4]heptane-6-carboxylic acid, O=C([C@H]1CC2(CC2)CN1[*:1])[*:2]; FX1 = N5-(Pyridin-3-yl)-L-glutamine, O=C(CC[C@H](N[*:1])C(=O)[*:2])Nc1cccnc1; hSOMe = (S)-2-Amino-4-methoxybutanoic acid, COCC[C@H](N[*:1])C(=O)[*:2]; Trp(βS-Me,7-OMe) = COc1cccc2c([C@H](C)[C@H](N)C(=O)O)c[nH]c12; Phe(4-CH2SO3H) = N[C@@H](Cc1ccc(CS(=O)(=O)O)cc1)C(=O)O; Trp(7-Cl) = N[C@@H](Cc1c[nH]c2c(Cl)cccc12)C(=O)O; Phe(4-CONH2) = NC(=O)c1ccc(C[C@H](N)C(=O)O)cc1; Phe(4-COOH) = N[C@@H](Cc1ccc(C(=O)O)cc1)C(=O)O; Trp(7-aza) = N[C@@H](Cc1c[nH]c2ncccc12)C(=O)O; Pip(5R-OH) = O=C(O)[C@@H]1CC[C@@H](O)CN1; Tyr(2-F) = N[C@@H](Cc1ccc(O)cc1F)C(=O)O; AEF = NCCOc1ccc(C[C@H](N)C(=O)O)cc1; Val(3-OH) = CC(C)(O)[C@H](N)C(=O)O; Pip(4-aza) = O=C(O)[C@@H]1CNCCN1; 4Pal = N[C@@H](Cc1ccncc1)C(=O)O; NMeE = CN[C@@H](CCC(=O)O)C(=O)O; dHyp = O=C(O)[C@H]1C[C@H](O)CN1; NMeS = CN[C@@H](CO)C(=O)O; αMeS = C[C@](N)(CO)C(=O)O; Nle = CCCC[C@H](N)C(=O)O; Pip2c = not defined here; Bhv = not defined here; Sar = CNCC(=O)O

T1: TNFR1 on THP-1 Lucia NF-κB cells (UniProt P19438 30-455, limits assumed)
T1 sequence (looked up): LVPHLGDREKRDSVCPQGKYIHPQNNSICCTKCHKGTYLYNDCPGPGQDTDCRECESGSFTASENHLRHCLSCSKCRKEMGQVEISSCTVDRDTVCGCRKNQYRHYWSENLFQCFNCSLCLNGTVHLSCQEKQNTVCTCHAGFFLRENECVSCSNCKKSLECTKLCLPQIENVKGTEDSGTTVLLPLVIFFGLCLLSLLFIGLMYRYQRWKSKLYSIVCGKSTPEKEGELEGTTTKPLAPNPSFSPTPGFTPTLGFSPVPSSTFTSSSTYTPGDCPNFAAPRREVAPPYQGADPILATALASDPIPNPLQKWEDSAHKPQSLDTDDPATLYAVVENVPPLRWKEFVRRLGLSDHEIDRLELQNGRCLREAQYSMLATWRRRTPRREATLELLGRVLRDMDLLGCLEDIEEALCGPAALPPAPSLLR

B1: SEQ ID NO. 166 (peptide)
peptide: cyclo([bhcLeu][FX1][4Pal][NMeS]W[NMeE]N[4Pal][Trp(7-Cl)][αMeS][Phe(4-COOH)]Y[Sar][Trp(βS-Me,7-OMe)])
SMILES: COc1cccc2c([C@H](C)[C@@H]3NC(=O)CN(C)C(=O)[C@H](Cc4ccc(O)cc4)NC(=O)[C@H](Cc4ccc(C(=O)O)cc4)NC(=O)[C@](C)(CO)NC(=O)[C@H](Cc4c[nH]c5c(Cl)cccc45)NC(=O)[C@H](Cc4ccncc4)NC(=O)[C@H](CC(N)=O)NC(=O)[C@H](CCC(=O)O)N(C)C(=O)[C@H](Cc4c[nH]c5ccccc45)NC(=O)[C@H](CO)N(C)C(=O)[C@H](Cc4ccncc4)NC(=O)[C@H](CCC(=O)Nc4cccnc4)NC(=O)[C@@H]4CC[C@@H](C4)NC3=O)c[nH]c12
B2: SEQ ID NO. 177 (peptide)
peptide: {CH2CO}-[Nle][PyrimAla][Bhv][Trp(7-aza)][NMeE]N[4Pal][Trp(7-Cl)][αMeS][Phe(4-COOH)]Y[Sar][Trp(βS-Me,7-OMe)]C-NH2
modifications: thioether N-14; reading uncertain; also: printed as cyclo(ClAc-Nle-PyrimAla-Bhv-Trp7az-NMeE-N-4Pal-Trp7Cl-aMeS-Phe4COOH-Y-Sar-SbMeW7OMe-C)-NH2
B3: SEQ ID NO. 182 (peptide)
peptide: cyclo([1S4RAcpc][Nle][4Pal][Pip(4-aza)]W[NMeE]N[4Pal][Trp(7-Cl)][αMeS][Phe(4-COOH)]Y[Sar][Trp(βS-Me,7-OMe)])
SMILES: CCCC[C@@H]1NC(=O)[C@@H]2C=C[C@@H](C2)NC(=O)[C@H]([C@@H](C)c2c[nH]c3c(OC)cccc23)NC(=O)CN(C)C(=O)[C@H](Cc2ccc(O)cc2)NC(=O)[C@H](Cc2ccc(C(=O)O)cc2)NC(=O)[C@](C)(CO)NC(=O)[C@H](Cc2c[nH]c3c(Cl)cccc23)NC(=O)[C@H](Cc2ccncc2)NC(=O)[C@H](CC(N)=O)NC(=O)[C@H](CCC(=O)O)N(C)C(=O)[C@H](Cc2c[nH]c3ccccc23)NC(=O)[C@@H]2CNCCN2C(=O)[C@H](Cc2ccncc2)NC1=O
B4: SEQ ID NO. 178 (peptide)
peptide: cyclo([bhcLeu][Nle][4Pal][Pip(4-aza)]W[NMeE]N[4Pal][Trp(7-Cl)][αMeS][Phe(4-COOH)]H[Sar][Trp(βS-Me,7-OMe)])
SMILES: CCCC[C@@H]1NC(=O)[C@@H]2CC[C@@H](C2)NC(=O)[C@H]([C@@H](C)c2c[nH]c3c(OC)cccc23)NC(=O)CN(C)C(=O)[C@H](Cc2c[nH]cn2)NC(=O)[C@H](Cc2ccc(C(=O)O)cc2)NC(=O)[C@](C)(CO)NC(=O)[C@H](Cc2c[nH]c3c(Cl)cccc23)NC(=O)[C@H](Cc2ccncc2)NC(=O)[C@H](CC(N)=O)NC(=O)[C@H](CCC(=O)O)N(C)C(=O)[C@H](Cc2c[nH]c3ccccc23)NC(=O)[C@@H]2CNCCN2C(=O)[C@H](Cc2ccncc2)NC1=O
B5: SEQ ID NO. 145 (peptide)
peptide: cyclo([bhcLeu][Nle][4Pal][Pip(5R-OH)]W[NMeE]N[AEF][Trp(7-Cl)][αMeS][Phe(4-CONH2)]Y[Sar][Trp(βS-Me,7-OMe)])
SMILES: CCCC[C@@H]1NC(=O)[C@@H]2CC[C@@H](C2)NC(=O)[C@H]([C@@H](C)c2c[nH]c3c(OC)cccc23)NC(=O)CN(C)C(=O)[C@H](Cc2ccc(O)cc2)NC(=O)[C@H](Cc2ccc(C(N)=O)cc2)NC(=O)[C@](C)(CO)NC(=O)[C@H](Cc2c[nH]c3c(Cl)cccc23)NC(=O)[C@H](Cc2ccc(OCCN)cc2)NC(=O)[C@H](CC(N)=O)NC(=O)[C@H](CCC(=O)O)N(C)C(=O)[C@H](Cc2c[nH]c3ccccc23)NC(=O)[C@@H]2CC[C@@H](O)CN2C(=O)[C@H](Cc2ccncc2)NC1=O
B6: SEQ ID NO. 175 (peptide)
peptide: cyclo([bhcLeu][Nle][4Pal][Pip(4-aza)]W[NMeE]N[4Pal][Trp(7-Cl)][αMeS][Phe(4-COOH)][Tyr(2-F)][Sar][Trp(βS-Me,7-OMe)])
SMILES: CCCC[C@@H]1NC(=O)[C@@H]2CC[C@@H](C2)NC(=O)[C@H]([C@@H](C)c2c[nH]c3c(OC)cccc23)NC(=O)CN(C)C(=O)[C@H](Cc2ccc(O)cc2F)NC(=O)[C@H](Cc2ccc(C(=O)O)cc2)NC(=O)[C@](C)(CO)NC(=O)[C@H](Cc2c[nH]c3c(Cl)cccc23)NC(=O)[C@H](Cc2ccncc2)NC(=O)[C@H](CC(N)=O)NC(=O)[C@H](CCC(=O)O)N(C)C(=O)[C@H](Cc2c[nH]c3ccccc23)NC(=O)[C@@H]2CNCCN2C(=O)[C@H](Cc2ccncc2)NC1=O
B7: SEQ ID NO. 185 (peptide)
peptide: {CH2CO}-[Nle][4Pal][Pip(5R-OH)]W[dHyp]N[Phe(4-COOH)][Trp(7-Cl)][αMeS][Phe(4-CONH2)]Y[Sar][Trp(βS-Me,7-OMe)]C-NH2
modifications: thioether N-14
SMILES: CCCC[C@@H]1NC(=O)CSC[C@@H](C(N)=O)NC(=O)[C@H]([C@@H](C)c2c[nH]c3c(OC)cccc23)NC(=O)CN(C)C(=O)[C@H](Cc2ccc(O)cc2)NC(=O)[C@H](Cc2ccc(C(N)=O)cc2)NC(=O)[C@](C)(CO)NC(=O)[C@H](Cc2c[nH]c3c(Cl)cccc23)NC(=O)[C@H](Cc2ccc(C(=O)O)cc2)NC(=O)[C@H](CC(N)=O)NC(=O)[C@H]2C[C@H](O)CN2C(=O)[C@H](Cc2c[nH]c3ccccc23)NC(=O)[C@@H]2CC[C@@H](O)CN2C(=O)[C@H](Cc2ccncc2)NC1=O
B8: SEQ ID NO. 158 (peptide)
peptide: {CH2CO}-[Nle][4Pal][Pip2c][Trp(7-aza)][NMeE]N[4Pal][Trp(7-Cl)][αMeS][Phe(4-COOH)][TyrOCF3][Sar][Trp(βS-Me,7-OMe)]C-NH2
modifications: thioether N-14; reading uncertain; also: printed as cyclo(ClAc-Nle-4Pal-Pip2c-Trp7az-NMeE-N-4Pal-Trp7Cl-aMeS-Phe4COOH-TyrOCF3-Sar-SbMeW7OMe-C)-NH2
B9: SEQ ID NO. 171 (peptide)
peptide: cyclo([bhcLeu][Nle][4Pal][Pip(4-aza)]W[NMeE]N[Phe(4-CH2SO3H)][Trp(7-Cl)][αMeS][Phe(4-COOH)]Y[Sar][Trp(βS-Me,7-OMe)])
SMILES: CCCC[C@@H]1NC(=O)[C@@H]2CC[C@@H](C2)NC(=O)[C@H]([C@@H](C)c2c[nH]c3c(OC)cccc23)NC(=O)CN(C)C(=O)[C@H](Cc2ccc(O)cc2)NC(=O)[C@H](Cc2ccc(C(=O)O)cc2)NC(=O)[C@](C)(CO)NC(=O)[C@H](Cc2c[nH]c3c(Cl)cccc23)NC(=O)[C@H](Cc2ccc(CS(=O)(=O)O)cc2)NC(=O)[C@H](CC(N)=O)NC(=O)[C@H](CCC(=O)O)N(C)C(=O)[C@H](Cc2c[nH]c3ccccc23)NC(=O)[C@@H]2CNCCN2C(=O)[C@H](Cc2ccncc2)NC1=O
B10: SEQ ID NO. 164 (peptide)
peptide: {CH2CO}-[Nle][Phe(4-CONH2)][Val(3-OH)][Trp(7-aza)][NMeE]N[4Pal][Trp(7-Cl)][αMeS][Phe(4-COOH)]Y[Sar][Trp(βS-Me,7-OMe)]C-NH2
modifications: thioether N-14
SMILES: CCCC[C@@H]1NC(=O)CSC[C@@H](C(N)=O)NC(=O)[C@H]([C@@H](C)c2c[nH]c3c(OC)cccc23)NC(=O)CN(C)C(=O)[C@H](Cc2ccc(O)cc2)NC(=O)[C@H](Cc2ccc(C(=O)O)cc2)NC(=O)[C@](C)(CO)NC(=O)[C@H](Cc2c[nH]c3c(Cl)cccc23)NC(=O)[C@H](Cc2ccncc2)NC(=O)[C@H](CC(N)=O)NC(=O)[C@H](CCC(=O)O)N(C)C(=O)[C@H](Cc2c[nH]c3ncccc23)NC(=O)[C@H](C(C)(C)O)NC(=O)[C@H](Cc2ccc(C(N)=O)cc2)NC1=O
B11: SEQ ID NO. 167 (peptide)
peptide: {CH2CO}-[Nle][4Pal][Pip(4-aza)]W[dPro4cPr]N[4Pal][Trp(7-Cl)][αMeS][Phe(4-COOH)]Y[Sar][Trp(βS-Me,7-OMe)]C-NH2
modifications: thioether N-14
SMILES: CCCC[C@@H]1NC(=O)CSC[C@@H](C(N)=O)NC(=O)[C@H]([C@@H](C)c2c[nH]c3c(OC)cccc23)NC(=O)CN(C)C(=O)[C@H](Cc2ccc(O)cc2)NC(=O)[C@H](Cc2ccc(C(=O)O)cc2)NC(=O)[C@](C)(CO)NC(=O)[C@H](Cc2c[nH]c3c(Cl)cccc23)NC(=O)[C@H](Cc2ccncc2)NC(=O)[C@H](CC(N)=O)NC(=O)[C@H]2CC3(CC3)CN2C(=O)[C@H](Cc2c[nH]c3ccccc23)NC(=O)[C@@H]2CNCCN2C(=O)[C@H](Cc2ccncc2)NC1=O
B12: SEQ ID NO. 181 (peptide)
peptide: cyclo([bhcLeu][Nle][4Pal][Pip(4-aza)]W[NMeE][hSOMe][4Pal][Trp(7-Cl)][αMeS][Phe(4-COOH)]Y[Sar][Trp(βS-Me,7-OMe)])
SMILES: CCCC[C@@H]1NC(=O)[C@@H]2CC[C@@H](C2)NC(=O)[C@H]([C@@H](C)c2c[nH]c3c(OC)cccc23)NC(=O)CN(C)C(=O)[C@H](Cc2ccc(O)cc2)NC(=O)[C@H](Cc2ccc(C(=O)O)cc2)NC(=O)[C@](C)(CO)NC(=O)[C@H](Cc2c[nH]c3c(Cl)cccc23)NC(=O)[C@H](Cc2ccncc2)NC(=O)[C@H](CCOC)NC(=O)[C@H](CCC(=O)O)N(C)C(=O)[C@H](Cc2c[nH]c3ccccc23)NC(=O)[C@@H]2CNCCN2C(=O)[C@H](Cc2ccncc2)NC1=O

Biological target: T1, TNFR1 on THP-1 Lucia NF-κB cells
Experiment: cell-based or functional assay

| Binder | THP-1 IC50 |
| --- | --- |
| B1 | 2.7 nM |
| B2 | 3.3 nM |
| B3 | 0.9 nM |
| B4 | 3.3 nM |
| B5 | 0.8 nM |
| B6 | 0.9 nM |
| B7 | 0.9 nM |
| B8 | 5.3 nM |
| B9 | 0.9 nM |
| B10 | 3.6 nM |
| B11 | 2.6 nM |
| B12 | 1.2 nM |
